Data on 30 sequences can be found in the nanobody polyreactivity screen of Harvey et al. (2022).

A short description of this data set: yeast display, Sf9 membrane polyspecificity reagent, FACS + sequencing; frameworks hold sequencing errors. The gist of the method: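 A nanobody's polyreactivity label depends on the gate it was sorted from. Yeast display cells were stained with 10% biotinylated, detergent-solubilized Sf9 membrane reagent for 1 hour at 4 °C, enriched on streptavidin microbeads and sorted by FACS. The low and high (top ~1%) gates were set on anti-HA fluorescence for expression and streptavidin fluorescence for reagent binding.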
For “QVQLVESGGGLVQAGGSLRLSCAASGSTFYTYTMGWYRQAPGKERELVAAISSSGGDTYYADSVKGRFTISRDNAKNTVYLQMNSLKPEDSAVYYCAALGAFPSLEFDYWGQGTQVTVSS”, the “polyreactivity (PSR sort gate)” value is given as “low polyreactivity”.

“QVQLVESGGGLVQAGGSLRLSCAASGSTFYTYTMGWYRQAPGKERELVAAITWSGGSTYYADSVKGRFTISRDNANNTVYLQMNSLKPEDTAVYYCNADQDYKGARPSGMDYCGQGTQVTVSS”: the “polyreactivity (PSR sort gate)” value was “low polyreactivity”.

Turning to “QVQLVESGGGLVQAGGSLRLSCAASGSTFYVNAMGWYRQAPGTERELVAAIRSAGRTNYADSVKGRFTSSRDNAKNTVYLQMNSLKPEDTAVYYCAAEVPHWPYYGRLHDRDYWGQGTQVTVSS”, the “polyreactivity (PSR sort gate)” value is on record as “low polyreactivity”.

As to “QVQLVESGGGLVQAGGSLRLSCAASGSTFYVNTMGWYRQAPGKERELVAAITATGASTYYADSVKGRFTISRDNAKNTVYLQMNSLKPEDTAVYYCNVRLRIRSGYWGQGTQVTVSS”, the “polyreactivity (PSR sort gate)” value is on record as “high polyreactivity”.

For the sequence “QVQLVESGGGLVQAGGSLRLSCAASGSTFYVNTMGWYRQAPGKERELVATITASDGSTYADSVKGRFTISRDNAKNTVYLQMNSLKPDDTAVYYCNADTRTQGPYSAPYYREMNYWGQGTQVTVSS”, the “polyreactivity (PSR sort gate)” value is recorded as “low polyreactivity”.

Turning to “QVQLVESGGGLVQAGGSLRLSCAASGSTFYVYAMGWYRQAPGKERELVAAISRSGGSTYYADSVKGRFTISRDNAKNTVYLQMNSLKPEDTAVYYCAARGYSTYPMDYWGQGTQVTVSS”, the “polyreactivity (PSR sort gate)” value was “high polyreactivity”.

Turning to “QVQLVESGGGLVQAGGSLRLSCAASGSTFYVYAMGWYRQAPGKERELVAAITSGTSTYYADSVKGRFTISRDNAKNTVYLQMNSLKPEDTAVYYCAAYSYYYRFPYYYWGQGTQVTVSS”, the “polyreactivity (PSR sort gate)” value was “high polyreactivity”.

With “QVQLVESGGGLVQAGGSLRLSCAASGSTFYVYAMGWYRQAPGKERELVASINSGGITNYADSVKGRFTISRDNAKNTVYLQMNSLKPEDTAVYYCAARSYKTGRYPQRNKYYYWGQGTQVTVSS”, the “polyreactivity (PSR sort gate)” value is reported as “high polyreactivity”.

Consider “QVQLVESGGGLVQAGGSLRLSCAASGSTFYVYAMGWYRQAPGKVREFVATISTSGAITYYADSVKGRFTISRDNAKNTVYLQMNSQKPEDTAVYYCARSGSLLSQVWYNYWGQGTQVTVTS”, for which the “polyreactivity (PSR sort gate)” value was “low polyreactivity”.

“QVQLVESGGGLVQAGGSLRLSCAASGSTFYVYDMGCYRQAPGKEREWVAAISSGAGSTYYADSVKGRFTISRDNAKNTVYLQMNSLKRKIPRSITALLFTVNGGGSRSHDYWAQGTQVTVSS”: the “polyreactivity (PSR sort gate)” value is “low polyreactivity”.

On to “QVQLVESGGGLVQAGGSLRLSCAASGSTFYVYDMGWYRQAPGKERELVADISWSGGSTYADSVKGRFTISRDNAKNTVYLQMNSLKPEDTAVYYCAATSRPRPYHGGRMYYWGQGTQVTVSS”, for which the “polyreactivity (PSR sort gate)” value is “high polyreactivity”.

For “QVQLVESGGGLVQAGGSLRLSCAASGSTFYWNAMGWYRQAPGKESEFVARISSRGGSTYYADSVKGRFTISRDNAKNTVYLQMNSLKPEDTAVYYCAARLRRTQTYSSGRPGDYWGQGTQVTVSS”, the “polyreactivity (PSR sort gate)” value was “high polyreactivity”.

Regarding “QVQLVESGGGLVQAGGSLRLSCAASGSTFYWYTMGWYRQAPGKERELVARISSSGSTNYADSVKGRFTISRDNAKNTVYLQMNSLKPEDTAVYYCNKDWIYRGYDYWGQGTQVTVSS”, the “polyreactivity (PSR sort gate)” value was “high polyreactivity”.

As to “QVQLVESGGGLVQAGGSLRLSCAASGSTFYWYTMGWYRQAPGKERELVATITSVGRTNYADSVKGRFTISRDNAKNTVYLQMNSLKPEDTAVYYCAADSYSYRYYYWGQGTQVTVSS”, the “polyreactivity (PSR sort gate)” value is “high polyreactivity”.

In the case of “QVQLVESGGGLVQAGGSLRLSCAASGSTFYYNAMGWYRQAPGKEREFVAAISSRGGSTYYADSVKGRFTISRDNAKNTVYLQMNSLKPEDTAVYYCAAKYRHRYDWGQGTQVTVSS”, the “polyreactivity (PSR sort gate)” value was “high polyreactivity”.

In the case of “QVQLVESGGGLVQAGGSLRLSCAASGSTFYYNAMGWYRQAPGKERELVARISRSGGSTYADSVKGRFTISRDNAKKTVSFQMNSLKPEDTAVYYCNADAYGTQEFTSYAVRYDYWGQGTEVTVSS”, the “polyreactivity (PSR sort gate)” value is recorded as “low polyreactivity”.

With “QVQLVESGGGLVQAGGSLRLSCAASGSTFYYNAMGWYRQAPGKERELVAVINSGGSTYYADSVKGRFTISRDNAKNTVYLQMNSLKPEDTAVYYCARRRRESRQDGDYWGQGTQVTVSS”, the “polyreactivity (PSR sort gate)” value is “high polyreactivity”.

On to “QVQLVESGGGLVQAGGSLRLSCAASGSTFYYNAMVWYRQAPGKEREFVASISWRGGRTYYADSVKGRFTISRDNAKNTVYLQMNSLKQEDTAVYYCAKGYLALGQPDDYWGQGTQVTVSS”, for which the “polyreactivity (PSR sort gate)” value is listed as “high polyreactivity”.

On to “QVQLVESGGGLVQAGGSLRLSCAASGSTFYYNGMGWYRQAPGKEREFVAAITSSGTSTHYADSVKGRFTISRDNAKNTVYLQMNSLKPEDTAVYYCNRYGAHVSTAYYYWGQGTQVTVSS”, for which the “polyreactivity (PSR sort gate)” value is “high polyreactivity”.

Consider “QVQLVESGGGLVQAGGSLRLSCAASGSTFYYNSMGWYRQAHGKERQLVAAISKSSTRTYYADSVKGRFTISRDNAQNTVYLQMNSLKPEDTAVYYCAARQWRRSRFDYWGQGTQVNVSS”, for which the “polyreactivity (PSR sort gate)” value is recorded as “high polyreactivity”.

On to “QVQLVESGGGLVQAGGSLRLSCAASGSTFYYYAMGWYRQAPGKEREFVAAISWRGGSTYYADSVKGRFTISRDNAKNTVYLQMNSLKPEDTAVYYCAATTLYRGVYYRIFGWGYERGHWGQGTQVTVSS”, for which the “polyreactivity (PSR sort gate)” value is “low polyreactivity”.

Regarding “QVQLVESGGGLVQAGGSLRLSCAASGSTFYYYAMGWYRQAPGKERELVAAIDWSGESTYYADSVKGRFTISRDNAKNTVYLQMNSLKPEDTAVYYCAADLGYPWGYVLFYKQSFSYYYWGQGTQVTVSS”, the “polyreactivity (PSR sort gate)” value is reported as “low polyreactivity”.

Turning to “QVQLVESGGGLVQAGGSLRLSCAASGSTFYYYAMGWYRQAPGKERELVAAISVSGASKYYADSVKGRFTISRDNAKNTVYLQMNSLKPEDTAVYYCAADEGYPGDGDYWGQGTQVTVSS”, the “polyreactivity (PSR sort gate)” value is reported as “low polyreactivity”.

Consider “QVQLVESGGGLVQAGGSLRLSCAASGSTFYYYAMGWYRQAPGKERELVAAITYRGGSTYYADSVKGRFTISRDNAKNTVYLQMNSLKPEDTAVFYCAIVGYKTSSIRYGYWGQGTQVTVSS”, for which the “polyreactivity (PSR sort gate)” value is “high polyreactivity”.

As to “QVQLVESGGGLVQAGGSLRLSCAASGSTFYYYAMGWYRQAPGKERELVASISFSGGSTYYADSVKGRFTISRDNAKNTVYLEMNRLKPEDTAVYYCGYYYWGQGTQVTVSS”, the “polyreactivity (PSR sort gate)” value was “low polyreactivity”.

With “QVQLVESGGGLVQAGGSLRLSCAASGSTFYYYAMGWYRQAPGKERELVASISGGGSTSYADSVKGRFTISRDNAKNTVYLQMNSLKPEDNAVYYCNADPSEYDPNYVVVFSPQKYDYCGQGTQVTVSS”, the “polyreactivity (PSR sort gate)” value is “low polyreactivity”.

“QVQLVESGGGLVQAGGSLRLSCAASGSTFYYYAMGWYRQATGKERELVAAISGRGGSTYYADSVKGRFTISRDNAKNTVYLQMNSLKPEDTAVYYCNKRRAAGGFPYDYWGQGTQVTVSS”: the “polyreactivity (PSR sort gate)” value is given as “high polyreactivity”.

For “QVQLVESGGGLVQAGGSLRLSCAASGSTFYYYAMGWYRQPPGKERELVASITTGGGSTYYADSVKGRFTISRDNAKNTVYLQMNSLKPEDTAVYYCAAALAYYYWWYDYWGQGTQVTVSS”, the “polyreactivity (PSR sort gate)” value is on record as “low polyreactivity”.

“QVQLVESGGGLVQAGGSLRLSCAASGSTFYYYTMGWYRQAPGKEREFVAAITVGGGSTYYADSEKGRFTISRDNAKNTVYLQMNSLKPEDTAVYYCAKEVGRYLGTVSYEYDYWGQGTQVTVSS”: the “polyreactivity (PSR sort gate)” value is reported as “high polyreactivity”.

Take “QVQLVESGGGLVQAGGSLRLSCAASGSTFYYYTMGWYRQAPGKEREFVADITNRGGSTYYADSVKGRFTISRDNAKNTVYLQMNSLKPEDTAVYYCAARFSPWYWAGDYDYWGQGTQVTVSS”: the “polyreactivity (PSR sort gate)” value is recorded as “high polyreactivity”.
